From patent US6713604 (TEXAS BIOTECHNOLOGY, dated 2004)
Bridges are numbered along the chain shown (N, C = ends). Where no end group is shown, it is not given here. [ ]: non-standard residue; d: D form. MPEG5000 = polyethyleneglycol of 5000 molecular weight, attached to the N-terminal Cys; dPen = CC(C)(S)[C@@H](N)C(=O)O

molecular target: T1, integrin α4β1 (human, UniProt P13612 34-1032; P05556 21-798); test: inhibition of HL-60 cell (α4β1) binding to VCAM-IgG coated beads, fluorimetry
T1 construct: whole, on cells; also called VLA-4; very late antigen-4
Procedure: (§1) The media was collected and active protein was purified by immunoprecipitation using Dynal magnetic polystyrene beads coated with goat anti-mouse IgG. Following immunoprecipitation, the beads bound cells that expressed the integrin α_4β_1 such as Ramos and HL-60.
HL-60 cells were fluorescently labeled with Calcein AM C-3099 (Molecular Probes) and resuspended in 1 ml of binding buffer (Hank's balanced salt solution, pH 7.4, 1.0 mM CaCl_2, 1.0 mM MgCl_2). The beads (10 µl, 4×10^6 beads/ml) were placed in wells of a 96-well microtiter dish with 10 µl of peptide at various concentrations. The beads were incubated with 10 µl of labeled cells (10^7 cells/ml) for 10 min at room temperature. Following immobilization of the beads onto the plastic with a magnet, unbound cells were removed by washing three times with binding buffer. The remaining bound cells were lysed in 50 mM Tris, pH 7.4, 5.0 mM EDTA, 1.0% NP-40 and quantitated by fluorimetry using a Millipore Cytofluor 2350 fluorimeter. Dose response curves were calculated and IC$50$ values determined. Alternatively, the percent adhesion was determined at a single peptide concentration for comparison among peptides.

T1 sequence (P13612 34-1032, chain 1 of 2): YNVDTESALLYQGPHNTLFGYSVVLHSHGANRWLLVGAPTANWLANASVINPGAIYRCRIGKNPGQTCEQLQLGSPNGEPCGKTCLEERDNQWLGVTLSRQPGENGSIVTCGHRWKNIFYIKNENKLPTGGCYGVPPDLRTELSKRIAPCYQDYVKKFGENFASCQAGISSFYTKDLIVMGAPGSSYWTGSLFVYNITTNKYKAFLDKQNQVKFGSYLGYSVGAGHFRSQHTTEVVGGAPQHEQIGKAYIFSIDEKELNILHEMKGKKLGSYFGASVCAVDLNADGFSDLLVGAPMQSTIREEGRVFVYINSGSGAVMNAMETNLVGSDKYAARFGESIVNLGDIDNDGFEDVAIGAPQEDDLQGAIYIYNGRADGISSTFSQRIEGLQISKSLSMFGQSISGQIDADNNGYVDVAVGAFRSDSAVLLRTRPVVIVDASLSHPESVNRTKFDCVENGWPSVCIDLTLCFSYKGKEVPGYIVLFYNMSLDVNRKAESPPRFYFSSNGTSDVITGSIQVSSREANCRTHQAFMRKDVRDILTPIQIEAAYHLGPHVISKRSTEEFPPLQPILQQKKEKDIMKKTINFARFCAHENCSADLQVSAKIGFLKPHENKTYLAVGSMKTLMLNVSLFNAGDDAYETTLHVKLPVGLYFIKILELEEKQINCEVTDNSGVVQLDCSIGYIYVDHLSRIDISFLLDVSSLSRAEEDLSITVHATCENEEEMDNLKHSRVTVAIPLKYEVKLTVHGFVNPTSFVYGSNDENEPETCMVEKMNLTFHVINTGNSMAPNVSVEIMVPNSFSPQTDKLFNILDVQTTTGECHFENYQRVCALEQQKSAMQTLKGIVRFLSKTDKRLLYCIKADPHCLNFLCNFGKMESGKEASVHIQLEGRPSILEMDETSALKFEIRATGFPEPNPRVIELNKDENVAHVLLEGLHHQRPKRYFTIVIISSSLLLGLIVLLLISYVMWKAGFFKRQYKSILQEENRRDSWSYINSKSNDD
T1 sequence (P05556 21-798, chain 2 of 2): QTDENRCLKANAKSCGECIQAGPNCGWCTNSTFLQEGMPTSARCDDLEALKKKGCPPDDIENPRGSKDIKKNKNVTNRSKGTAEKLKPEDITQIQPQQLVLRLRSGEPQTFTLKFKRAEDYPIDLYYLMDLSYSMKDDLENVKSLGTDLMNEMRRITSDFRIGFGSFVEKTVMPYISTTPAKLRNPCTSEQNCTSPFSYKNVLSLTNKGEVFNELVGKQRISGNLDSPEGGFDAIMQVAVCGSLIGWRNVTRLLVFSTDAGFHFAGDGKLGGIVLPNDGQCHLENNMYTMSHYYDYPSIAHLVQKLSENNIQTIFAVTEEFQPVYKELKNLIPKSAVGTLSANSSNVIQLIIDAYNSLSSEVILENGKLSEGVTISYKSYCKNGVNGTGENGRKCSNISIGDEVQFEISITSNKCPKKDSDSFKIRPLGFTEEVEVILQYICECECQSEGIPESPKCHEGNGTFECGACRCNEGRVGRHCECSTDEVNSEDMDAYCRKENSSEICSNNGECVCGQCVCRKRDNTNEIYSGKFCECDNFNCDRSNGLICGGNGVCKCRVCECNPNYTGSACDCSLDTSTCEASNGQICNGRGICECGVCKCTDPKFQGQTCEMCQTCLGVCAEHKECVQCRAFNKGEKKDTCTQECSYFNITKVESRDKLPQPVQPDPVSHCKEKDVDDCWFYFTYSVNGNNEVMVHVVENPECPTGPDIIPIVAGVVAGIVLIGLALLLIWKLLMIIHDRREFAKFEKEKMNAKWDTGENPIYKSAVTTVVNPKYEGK

| Binder | peptide concentration that significantly inhibits binding [µM] |
| --- | --- |
| EWLDVPEWLDV (cyclic: lactam formed by condensation of the N and C terminus, Head-to-tail cyclic lactam) [SEQ ID NO 6] | < 10 |
| GPEFLDV (cyclic: lactam formed by condensation of the N and C terminus, Head-to-tail cyclic lactam; also called Gly-Pro-Glu-Phe-Leu-Asp-Val) [SEQ ID NO 7] | < 10 |
| cyclo(EWLDVD) (not fully specified (residue 3), Head-to-tail cyclic lactam; also called Glu-Trp-Leu-Asp-Val-Asp) [SEQ ID NO 3] | < 10 |
| SWLDVC-OH (thioether (positions not given here); not fully specified (N-terminus, bridges); printed as CH2CO-Ser-Trp-Leu-Asp-Val-Cys-acid; also: sulfide, sulfoxide or sulfone not given here, also called CH2CO-Ser-Trp-Leu-Asp-Val-Cys-acid) [SEQ ID NO 9] | < 10 |
| CEFLDYC-OH (disulfide 1-7; N-terminus assumed; SMILES CC(C)C[C@@H]1NC(=O)[C@H](Cc2ccccc2)NC(=O)[C@H](CCC(=O)O)NC(=O)[C@@H](N)CSSC[C@@H](C(=O)O)NC(=O)[C@H](Cc2ccc(O)cc2)NC(=O)[C@H](CC(=O)O)NC1=O, Disulfide cyclic peptide; also called Cys-Glu-Phe-Leu-Asp-Tyr-Cys-acid) [SEQ ID NO 38] | < 10 |
| [dC]EWLDVC-OH (disulfide 1-7; N-terminus assumed; SMILES CC(C)C[C@@H]1NC(=O)[C@H](Cc2c[nH]c3ccccc23)NC(=O)[C@H](CCC(=O)O)NC(=O)[C@H](N)CSSC[C@@H](C(=O)O)NC(=O)[C@H](C(C)C)NC(=O)[C@H](CC(=O)O)NC1=O, Disulfide cyclic peptide; also called dCys-Glu-Trp-Leu-Asp-Val-Cys-acid) [SEQ ID NO 35] | < 10 |
| EWLDV (cyclic: lactam formed by condensation of the N and C terminus, Head-to-tail cyclic lactam; also called Glu-Trp-Leu-Asp-Val) [SEQ ID NO 4] | < 10 |
| EWLDD (cyclic: lactam formed by condensation of the N and C terminus, Head-to-tail cyclic lactam; also called Glu-Trp-Leu-Asp-Asp) [SEQ ID NO 5] | < 10 |
| {CH2CO}-EWLDVC-OH (thioether N-6; also: sulfide, sulfoxide or sulfone not given here, also called CH2CO-Glu-Trp-Leu-Asp-Val-Cys-acid) [SEQ ID NO 10] | < 10 |

Continued, values first:

| peptide concentration that significantly inhibits binding [µM] | Binder |
| --- | --- |
| < 10 | CPEWLDVC-OH (disulfide 1-8; N-terminus assumed; SMILES CC(C)C[C@@H]1NC(=O)[C@H](Cc2c[nH]c3ccccc23)NC(=O)[C@H](CCC(=O)O)NC(=O)[C@@H]2CCCN2C(=O)[C@@H](N)CSSC[C@@H](C(=O)O)NC(=O)[C@H](C(C)C)NC(=O)[C@H](CC(=O)O)NC1=O, Disulfide cyclic peptide) [SEQ ID NO 40] |
| < 10 | [dPen]WLDVC-OH (disulfide 1-6; N-terminus assumed; SMILES CC(C)C[C@@H]1NC(=O)[C@H](Cc2c[nH]c3ccccc23)NC(=O)[C@H](N)C(C)(C)SSC[C@@H](C(=O)O)NC(=O)[C@H](C(C)C)NC(=O)[C@H](CC(=O)O)NC1=O, Disulfide cyclic peptide; also called dPen-Trp-Leu-Asp-Val-Cys-acid) [SEQ ID NO 42] |
| < 10 | MPEG5000-CWLDVC-OH (disulfide 1-6, Disulfide cyclic peptide; also called MPEG5000-Cys-Trp-Leu-Asp-Val-Cys-acid) [SEQ ID NO 41] |

molecular target: integrin α4β1 (human) (UniProt P13612); test: as above
Sequence (P13612 34-1032, chain 1 of 2): as the sequence (P13612 34-1032, chain 1 of 2) above
Sequence (P05556 21-798, chain 2 of 2, further chain): as the sequence (P05556 21-798, chain 2 of 2) above

| peptide concentration that significantly inhibits binding [µM] | Binder |
| --- | --- |
| < 10 | [dC]SWLDV[dC]-OH (disulfide 1-7; N-terminus assumed; SMILES CC(C)C[C@@H]1NC(=O)[C@H](Cc2c[nH]c3ccccc23)NC(=O)[C@H](CO)NC(=O)[C@H](N)CSSC[C@H](C(=O)O)NC(=O)[C@H](C(C)C)NC(=O)[C@H](CC(=O)O)NC1=O) [SEQ ID NO 39] |

molecular target: T1, integrin α4β1; test: VCAM-IgG fusion on goat anti-mouse IgG magnetic beads; binding of Ramos and HL-60 cells
Source text: as §1

| binding result | Binder |
| --- | --- |
| binds | fusion protein of the two N-terminal domains of human VCAM with the hinge, CH2 and CH3 regions of mouse IgG2A (Fc fusion, UniProt P19320 25-220, looked up, domain: two N-terminal domains; Secreted from transfected COS cells and captured on Dynal magnetic beads coated with goat anti-mouse IgG; also called VCAM-1; purified VCAM; not shown: mouse IgG2A hinge, CH2 and CH3 regions, amplified from cDNA of the hybridoma cell line 402C10) FKIETTPESRYLAQIGDSVSLTCSTTGCESPFFSWRTQIDSPLNGKVTNEGTTSTLTMNPVSFGNEHSYLCTATCESRKLEKGIQVEIYSFPKDPEIHLSGPLEAGKPITVKCSVADVYPFDRLEIDLLKGDHLMKSQEFLEDADRKSLETKSLEVTFTPVIEDIGKVLVCRAKLHIDEMDSVPTVRQAVKELQVY |
